B1: Integrin alpha-L (Homo sapiens), P20701 (parent)
chain: MKDSCITVMAMALLSGFFFFAPASSYNLDVRGARSFSPPRAGRHFGYRVLQVGNGVIVGAPGEGNSTGSLYQCQSGTGHCLPVTLRGSNYTSKYLGMTLATDPTDGSILACDPGLSRTCDQNTYLSGLCYLFRQNLQGPMLQGRPGFQECIKGNVDLVFLFDGSMSLQPDEFQKILDFMKDVMKKLSNTSYQFAAVQFSTSYKTEFDFSDYVKRKDPDALLKHVKHMLLLTNTFGAINYVATEVFREELGARPDATKVLIIITDGEATDSGNIDAAKDIIRYIIGIGKHFQTKESQETLHKFASKPASEFVKILDTFEKLKDLFTELQKKIYVIEGTSKQDLTSFNMELSSSGISADLSRGHAVVGAVGAKDWAGGFLDLKADLQDDTFIGNEPLTPEVRAGYLGYTVTWLPSRQKTSLLASGAPRYQHMGRVLLFQEPQGGGHWSQVQTIHGTQIGSYFGGELCGVDVDQDGETELLLIGAPLFYGEQRGGRVFIYQRRQLGFEEVSELQGDPGYPLGRFGEAITALTDINGDGLVDVAVGAPLEEQGAVYIFNGRHGGLSPQPSQRIEGTQVLSGIQWFGRSIHGVKDLEGDGLADVAVGAESQMIVLSSRPVVDMVTLMSFSPAEIPVHEVECSYSTSNKMKEGVNITICFQIKSLIPQFQGRLVANLTYTLQLDGHRTRRRGLFPGGRHELRRNIAVTTSMSCTDFSFHFPVCVQDLISPINVSLNFSLWEEEGTPRDQRAQGKDIPPILRPSLHSETWEIPFEKNCGEDKKCEANLRVSFSPARSRALRLTAFASLSVELSLSNLEEDAYWVQLDLHFPPGLSFRKVEMLKPHSQIPVSCEELPEESRLLSRALSCNVSSPIFKAGHSVALQMMFNTLVNSSWGDSVELHANVTCNNEDSDLLEDNSATTIIPILYPINILIQDQEDSTLYVSFTPKGPKIHQVKHMYQVRIQPSIHDHNIPTLEAVVGVPQPPSEGPITHQWSVQMEPPVPCHYEDLERLPDAAEPCLPGALFRCPVVFRQEILVQVIGTLELVGEIEASSMFSLCSSLSISFNSSKHFHLYGSNASLAQVVMKVDVVYEKQMLYLYVLSGIGGLLLLLLIFIVLYKVGFFKRNLKEKMEAGRGVPNGIPAEDSEQLASGQEAGDPGCLKPLHEKDSESGGGKD
partner: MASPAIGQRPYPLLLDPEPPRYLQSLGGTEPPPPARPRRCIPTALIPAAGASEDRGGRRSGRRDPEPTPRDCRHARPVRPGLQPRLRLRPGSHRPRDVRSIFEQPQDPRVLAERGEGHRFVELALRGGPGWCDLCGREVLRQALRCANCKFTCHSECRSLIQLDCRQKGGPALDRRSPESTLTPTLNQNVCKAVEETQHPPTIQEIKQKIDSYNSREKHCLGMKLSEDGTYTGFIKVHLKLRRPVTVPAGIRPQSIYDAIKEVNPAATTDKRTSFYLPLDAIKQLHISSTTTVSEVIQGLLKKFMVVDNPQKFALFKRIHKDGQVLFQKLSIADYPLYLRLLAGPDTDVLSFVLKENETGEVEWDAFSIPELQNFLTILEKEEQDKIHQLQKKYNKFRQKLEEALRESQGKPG

Variants of: B1
Details: with rasf5_mouse Rassf5, Q5EBH1

| Variant | effect of a mutation on the interaction |
| --- | --- |
| K1122A;K1124A | disrupting interaction |
